Test results as given in patent publication CN114989297A (BEIJING KEY BIOTECHNOLOGY CO LTD, dated 2022).

B1: LM6G3单克隆抗体 (antibody, V domains shown)
VH: VKPGGSLKLSCAASITAQPSPRMSWVRQTPDKRLEWVAICFEKKIGLYYPDSVKGRFTISRDQDKQTLYLQMSSLKSEDTAMYYCEHEWWDEQVSPWGQGTTVTVS
VL: DLVMTQTAPSVPVTPGESVSISCRSTFKPWPKYEPLHLYWFLQRPGQSPQLLIYMWFNLASGVPDRFSGSGSGTAFTLRISRVEAEDVGVYYCMNACCYYRQFGSGTKLEIK
B2: LM3F6单克隆抗体 (antibody, V domains shown)
VH: VKPGGSLKLSCAASSWAQYINTMSWVRQTPDKRLEWVAIISYYSRDKYYPDSVKGRFTISRDQDKQTLYLQMSSLKSEDTAMYYCPYTRPPVIWMTWGQGTTVTVS
VL: DLVMTQTAPSVPVTPGESVSISCRSTQGYCRKLVGDYLYWFLQRPGQSPQLLIYWHPNLASGVPDRFSGSGSGTAFTLRISRVEAEDVGVYYCLCCRCKSGGFGSGTKLEIK

Target: T1, 单核细胞增生李斯特氏菌鞭毛蛋白免疫原 (Listeria monocytogenes, UniProt Q02551 1-287)
T1 construct: Native flagellin preparation concentrated by ultrafiltration, not a recombinant protein; purity beyond the 33 kD band is not described; also called 免疫原蛋白; 抗原
T1 sequence (looked up): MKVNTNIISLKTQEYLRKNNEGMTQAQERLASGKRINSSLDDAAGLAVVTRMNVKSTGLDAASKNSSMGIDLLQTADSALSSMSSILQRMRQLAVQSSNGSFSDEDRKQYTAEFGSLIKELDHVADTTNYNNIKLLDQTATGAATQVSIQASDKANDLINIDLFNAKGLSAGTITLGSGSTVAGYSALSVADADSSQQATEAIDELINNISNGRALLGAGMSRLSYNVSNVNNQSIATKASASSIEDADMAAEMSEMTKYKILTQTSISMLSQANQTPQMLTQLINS
Test: IAsys Plus optical biosensor, immunogen immobilised on CMD cuvette, antibody at 5 concentrations, FASTfit

Binder	Kd [nM]
B1	8.73
B2	2.46
